We go through five molecules from patent US20240117066A1 (Memorial Sloan Kettering, published 2024).

The test has as its target T1, recombinant human uPAR protein (Leu23-Arg303) with a C-terminal 6-his tag (human, UniProt Q03405 23-303).
T1 construct: also called CD87
Kind of test: Biacore (SPR), single cycle kinetics. On the procedure:
Six clones 8B1, 11E10, 17C9, 19D7, 6C8, and 14C5 were produced. Next, the binding affinities KD of 8B1, 11E10, 17C9, 19D7, 6C8, and 14C5 antibodies were assessed. The KD values were calculated using the Biacore single cycle kinetics analysis.
A general note: In SPR one partner is held on a chip, and binding of the other changes the refractive index at the surface.

For orientation: Kd means the free concentration of one partner at which half of the binding sites on the other are occupied at equilibrium, for simple one-to-one binding.

T1 sequence (Q03405 other isoform, or with tags, fused parts or gaps): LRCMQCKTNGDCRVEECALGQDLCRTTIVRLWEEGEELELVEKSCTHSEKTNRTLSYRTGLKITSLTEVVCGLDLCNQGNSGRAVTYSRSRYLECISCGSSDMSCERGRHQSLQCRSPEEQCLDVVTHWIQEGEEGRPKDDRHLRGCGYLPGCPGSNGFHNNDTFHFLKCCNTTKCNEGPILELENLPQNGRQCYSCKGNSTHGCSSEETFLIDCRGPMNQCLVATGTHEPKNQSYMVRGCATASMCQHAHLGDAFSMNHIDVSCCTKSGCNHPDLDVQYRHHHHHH

B1: 14C5 antibody (antibody, V domains shown)
VH: QVQLKESGPGLVAPSQSLSITCTVSGFSLTSYGVHWVRQPPGKGLEWLGVLWAGGSTDYNSALMSRLSISKDNSKSQVFLKMNSLQTDDTAMYYCARGGLRQVFAYWGQGTLVTVSA
VL: DVLMTQTPLSLPVSLGDQASISCRSSQSIVYSNGNTYLEWYLQKPGQSPKLLIYKVSNRFSGVPDRFSGSGSGTDFTLKISRVEAEDLGVYYCFQGSHVPYTFGGGTKLEMK
With B1, the Kd is 42.4 nM.

B2: 11E10 antibody (antibody, V domains shown)
VH: QVQLQQSGPELVKPGASVKMSCKTSGYTFTDYVITWVKQRTGQGLEWIGEIYPRSGNTYYNAKFRGKATLTADKSSNTAYMQLSSLTSEDSAVYFCARGGYYDFDFFAMDYWGQGTSVTVSS
VL: DIVMTQAAPSVPVTPGESVSISCRSSKSLLHSNGNTYLYWFLQRPGQSPQLLIYRMSNLASGVPDRFSGSGSGTAFTLRISRVEAEDVGVYYCMQHLEYPYTFGGGTKLEIK
Consider B2, for which the equilibrium dissociation constant (Kd) was 95.2 nM.

B3: 8B1 antibody (antibody, V domains shown)
VH: QIQLVQSGPELKKPGETVKISCKASGYTFTNYGMNWVKQAPGKGLKWMGWINTNTGEPTYAEEFKGRFAFSLETSASTAYLQINNLKNEDTATYFCGDYEFAYWGQGTLVTVSA
VL: DIQMTQSPASLSVSVGETVTITCRASENIYSNLAWYQQKQGKSPQLLVYAATNLADGVPSRFSGSGSGTQYSLKINSLQSEDFGSYYCQHFWGTPWTFGGGTKLEIK
On to B3, for which the Kd came out at 3.48 nM.

B4: 6C8 antibody (antibody, V domains shown)
VH: EVQLVESGGGLVQPGGSLKISCAASGFTFTNYGMSWVRQTPDKRLELVATTNSNGGATYYPDSVKGRFTISRDNAKNTLYLQMSSLKSEDTAMYFCTRDRDYYGGSMDYWGQGTSVTVSS
VL: DIVMSQSPSSLAVSVGERVSMSCKSSQSLLYSSDQKNYLAWYQQKPGQSPELLIYWASTRESGVPDRFTGSGSGTDFTLTISSVKAEDLAIYYCQQYYSYPFTFGSGTKLEIK
On to B4, for which the Kd is 6.61 nM.

B5: 17C9 antibody (antibody, V domains shown)
VH: EVQLVESGGGLVKPGGSLKLSCAASGFTFSSYAMSWVRQSPEKRLEWVAEISSGGTYTYYPDTVTGRFTISRDNAKNTLYLEMSSLRSEDTAMYYCARDDGFYAWFGYWGQGTLVTVSA
VL: not shown
Regarding B5, the Kd turned out to be 18.6 nM.
